Data: paper PMC12556802, “Rules of engagement: Determinants of chemokine receptor activation and selectivity by CCL27 and CCL28” (The Journal of Biological Chemistry, 2025)
Read-outs that look alike come from different tables or passages of the source.

What was measured:
CCR10-RlucII [1] = molecular target: T1, CCR10-RlucII (human, UniProt P46092 1-362)
T1 sequence (looked up): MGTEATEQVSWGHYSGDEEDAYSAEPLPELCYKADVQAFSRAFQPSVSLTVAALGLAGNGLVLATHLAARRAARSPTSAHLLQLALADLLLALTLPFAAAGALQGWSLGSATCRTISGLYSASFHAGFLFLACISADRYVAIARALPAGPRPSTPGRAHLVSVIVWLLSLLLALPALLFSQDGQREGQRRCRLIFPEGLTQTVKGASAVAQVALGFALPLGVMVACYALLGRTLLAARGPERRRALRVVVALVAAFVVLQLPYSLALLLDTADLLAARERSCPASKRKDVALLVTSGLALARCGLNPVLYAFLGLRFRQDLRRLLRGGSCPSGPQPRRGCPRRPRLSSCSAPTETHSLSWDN

[2] = substrate: T2, CC chemokine receptor 10 (CCR10) on L1.2 cells (human) (UniProt P46092)
T2 sequence: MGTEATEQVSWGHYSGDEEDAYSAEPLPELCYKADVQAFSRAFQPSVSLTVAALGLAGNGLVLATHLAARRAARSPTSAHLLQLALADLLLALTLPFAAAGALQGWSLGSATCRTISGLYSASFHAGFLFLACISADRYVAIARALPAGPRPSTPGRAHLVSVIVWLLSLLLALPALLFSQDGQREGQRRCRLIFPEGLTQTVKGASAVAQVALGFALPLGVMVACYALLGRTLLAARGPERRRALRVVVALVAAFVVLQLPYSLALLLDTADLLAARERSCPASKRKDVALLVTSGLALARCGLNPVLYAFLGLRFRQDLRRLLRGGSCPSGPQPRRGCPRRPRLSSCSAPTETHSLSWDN

[3] = substrate: T2, ; remark: listed apart in the source
CCR10-RlucII [4] = molecular target: T1, CCR10-RlucII; assay: cell-based or functional assay
[5] = substrate: T2, ; remark: listed apart in the source

B1: F-CCL27 (ligand)
chain: FFLLPPSTACCTQLYRKPLSDKLLRKVIQVELQEADGDCHLQAFVLHLAQRSICIHPQNPSLSQWFEHQERKLHGTLPKLNFGMLRKMG
With B1 the β-arrestin2 recruitment to CCR10-RlucII by BRET in HEK293 cells, EC50 of the chemokine (CCR10-RlucII [1]) was 19 nM, the β-arrestin2 recruitment to CCR10-RlucII by BRET in HEK293 cells, Emax relative to WT-CCL27 (CCR10-RlucII [1]) was 1.8 fold and the bare filter chemotaxis of L1.2/CCR10 cells, efficacy relative to WT CCL27 [2] was 1.1 fold. The bare filter chemotaxis of L1.2/CCR10 cells, potency relative to WT CCL27 [2] was 10 fold, the transendothelial migration of L1.2/CCR10 cells, efficacy relative to WT CCL27 [2] was 2.7 fold and the transendothelial migration of L1.2/CCR10 cells, potency relative to WT CCL27 [2] was 3 fold. The internalization of CCR10 on L1.2/CCR10 cells (3.1-100 nM chemokine, 45 min, 37 °C), percent of receptor remaining on the surface at 3.1 nM [3] was 30%.

B2: NT28-CCL27 (ligand)
chain: ILPIASSCCTQLYRKPLSDKLLRKVIQVELQEADGDCHLQAFVLHLAQRSICIHPQNPSLSQWFEHQERKLHGTLPKLNFGMLRKMG
B2 was tested, and the “β-arrestin2 recruitment to CCR10-RlucII by BRET in HEK293 cells, efficacy relative to WT CCL27” value (CCR10-RlucII [4]) was 1.5 fold and the “β-arrestin2 recruitment to CCR10-RlucII by BRET in HEK293 cells, potency relative to WT CCL27” value (CCR10-RlucII [4]) was 3.5 fold.

B3: F1A-CCL27 (ligand)
chain: ALLPPSTACCTQLYRKPLSDKLLRKVIQVELQEADGDCHLQAFVLHLAQRSICIHPQNPSLSQWFEHQERKLHGTLPKLNFGMLRKMG
B3 showed a migration of L1.2/CCR10 cells, dose-response (0.1 nM to 1 μM), reduction in efficacy relative to WT CCL27 [5] of 35%, a migration of L1.2/CCR10 cells, dose-response (0.1 nM to 1 μM), reduction in potency relative to WT CCL27 [5] of 10 fold and a transwell migration of L1.2/CCR10 cells at 50 nM chemokine, reduction compared to WT CCL27 [5] of 85%.

B4: CCL27 (ligand)
chain: FLLPPSTACCTQLYRKPLSDKLLRKVIQVELQEADGDCHLQAFVLHLAQRSICIHPQNPSLSQWFEHQERKLHGTLPKLNFGMLRKMG
With B4 the “β-arrestin2 recruitment to CCR10-RlucII by BRET in HEK293 cells, EC50 of the chemokine” value (CCR10-RlucII [4]) was 89 nM.
